According to paper PMC6265302, “Widespread bacterial lysine degradation proceeding via glutarate and L-2-hydroxyglutarate” (Nature Communications, 2018):

How the values were obtained:
Details in all cases: Filter binding: 50 mM Tris-HCl, 100 mM KCl, 50 mM NaCl, 5 mM MgCl2, pH 7.6, 15 min, footprint: 50 mM MOPS, 100 mM NaCl, 20 mM KCl, 2.5 mM MgCl2, 0.1 mM DTT
[1] = target: T1, CsiR (Escherichia coli BW25113 (K-12)) (UniProt P37338); experiment: SPR
T1 sequence: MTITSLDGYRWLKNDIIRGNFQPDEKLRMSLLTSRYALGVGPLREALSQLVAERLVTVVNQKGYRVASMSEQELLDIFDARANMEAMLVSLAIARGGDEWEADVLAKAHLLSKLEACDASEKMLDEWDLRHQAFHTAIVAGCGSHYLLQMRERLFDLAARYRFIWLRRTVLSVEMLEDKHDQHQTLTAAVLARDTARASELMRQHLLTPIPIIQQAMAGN

[2] = target: T1, CsiR (Escherichia coli BW25113 (K-12)); experiment: hydroxyl radical footprinting
[3] = system: CsiR (Escherichia coli BW25113 (K-12)); experiment: SPR

“CTTTTGTGCGCATTTTTCAGAAATGTAGATATTTTTAGATTATGGCTACGAAATGAG (double strand) [csiD 5'-UTR/promoter PCR product MS177/MS178]” gave a Kd [1] of 10 nM.

“TATGAGATGTAGGGTGACATGGCGATGCTCATTTCGTAGCCATAATCTAAAAATATCTACATTTCTGAAAAATGCGCACAAAAGCGACATATTGTTTTCTTATTGTGATCAAAAGCAACA (double strand) [csiD promoter PCR product MS170/MS171]” was tested, and the binding [2] was “binds”.

For “csiD 5'-UTR/promoter PCR product MS177/MS178”, the Kd [3] was 10 nM.
